How the values were obtained:
[1] = molecular target: ddEVH1 (D. discoideum EVH1 domain of ddVASP) (Dictyostelium discoideum, UniProt Q5TJ65)
[2] = test system: ENAH EVH1 domain tetramers; test: Peptide SPOT array, ENAH EVH1 domain tetramers; type: binding, human; conditions: SPOT intensities, tetrameric EVH1, 0.5 μM monomer
Procedure: Protein expression was carried out as above.
ABI3 substitution and overlapping motif SPOT arrays were synthesized at the MIT Biopolymer Facility using an Intavis SPOT synthesis peptide arrayer system. At the N‐terminus, the 20‐mer peptides were capped with a Gly‐Ser linker and acetylated. The peptides were linked to the cellulose membrane by a C‐terminal PEG spacer. For the overlapping motif array, because many of the peptide sequences contain additional Ena/VASP and Homer motifs, each peptide was also synthesized as a control where the internal proline tract was mutated to poly‐glycine. The protocol for blocking and probing the membrane was adapted from Frank and Dübel ([2006]). […] The following day, the array was washed in T‐TBS (TBS + 0.05% Tween‐20) and then incubated with the protein sample in MBS (+1 μM DTT) for 3 h at room temperature. All array experiments were carried out with streptavidin‐Cy3 (Thermo Fisher) pre‐tetramerized EVH1 at a final monomer concentration of 0.5 μM. The membrane was washed three times in T‐TBS prior to scanning on a GE Amersham Imager 680. SPOT intensities were calculated using the ImageJ analysis software (Abràmoff et al., [2004]). No background correction was performed. For the overlapping peptides, the final intensity was calculated as the difference between the intensity of the wild‐type and motif knockout control. […]

Homer1 EVH1 domain = Homer1 EVH1 domain (Homo sapiens, UniProt Q86YM7); conditions: read-out: K D ^Homer1; pH 7.6; SD
Sequence of Homer1 EVH1 domain (Q86YM7 with tags, fused parts or gaps): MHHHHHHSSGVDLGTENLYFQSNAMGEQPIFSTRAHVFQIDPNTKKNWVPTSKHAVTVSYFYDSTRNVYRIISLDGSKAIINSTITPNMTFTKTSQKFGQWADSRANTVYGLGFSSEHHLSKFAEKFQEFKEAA

Sequence of ddEVH1 (D. discoideum EVH1 domain of ddVASP) (Q5TJ65 with tags, fused parts or gaps): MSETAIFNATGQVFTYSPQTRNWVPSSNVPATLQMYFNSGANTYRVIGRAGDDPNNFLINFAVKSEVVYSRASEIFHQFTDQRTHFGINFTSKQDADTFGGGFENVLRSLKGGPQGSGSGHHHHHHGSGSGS

DIESDFPPPPEDFPAADELP [FAT1] was tested, and the “ddEVH1 binding, result in words” value [1] was “bound poorly”, the “Binding to ENAH relative to Homer1 EVH1 in the SPOT array assay” value [2] was “two‐ to three‐fold better” and the Kd (Homer1 EVH1 domain) was 98 ± 7 µM.
